Experimental data taken from the Immune Epitope Database (IEDB).

Columns and labels:
HLA-A*24:02 = assay: IEDB peptide-MHC binding, purified MHC/direct/fluorescence; filed as Kd, often an IC50 or EC50 that approximates it; ≥ and ≤ were set here for values at or beyond the usual limits of such assays
HLA-A*24:03 = assay: as above; conditions: source organism: Orthohantavirus hantanense
HLA-A*23:01 = assay: as above; conditions: source organism: Orthohantavirus hantanense
HLA-B*35:01 = assay: IEDB peptide-MHC binding, purified MHC/competitive/fluorescence; filed as Kd, often an IC50 or EC50 that approximates it; ≥ and ≤ were set here for values at or beyond the usual limits of such assays
HLA-B*15:01 [1] = assay: as above
HLA-B*27:03 = assay: as above
HLA-B*51:01 = assay: as above
HLA-A*02:01 [2] = assay: as above
HLA-A*26:01 = assay: as above
HLA-B*57:01 = assay: as above
HLA-A*29:02 = assay: as above
HLA-B*46:01 [3] = assay: as above
HLA-B*39:01 = assay: as above
HLA-A*03:01 [4] = assay: as above
HLA-B*15:17 = assay: as above; conditions: source organism: Rickettsia felis URRWXCal2
HLA-A*02:19 = assay: as above
HLA-A*01:01 = assay: IEDB peptide-MHC binding, purified MHC/direct/fluorescence; filed as Kd, often an IC50 or EC50 that approximates it; ≥ and ≤ were set here for values at or beyond the usual limits of such assays
HLA-B*07:02 [5] = assay: as above
HLA-B*08:01 = assay: as above
HLA-B*40:01 = assay: as above
HLA-B*15:01 [6] = assay: as above
HLA-B*44:02 = assay: as above
HLA-A*02:01 [7] = assay: as above
HLA-B*15:09 = assay: as above
HLA-A*11:01 = assay: as above
HLA-B*27:05 = assay: as above
HLA-B*18:01 [8] = assay: as above
HLA-A*03:01 [9] = assay: as above
HLA-A*69:01 [10] = assay: as above
HLA-B*58:01 = assay: as above
HLA-C*05:01 = assay: as above; conditions: source organism: Influenza A virus (A/Harbin/1/1988(H1N2))
HLA-B*07:02 [11] = assay: IEDB peptide-MHC binding, purified MHC/competitive/fluorescence; filed as Kd, often an IC50 or EC50 that approximates it; ≥ and ≤ were set here for values at or beyond the usual limits of such assays; conditions: source organism: Influenza A virus (A/Harbin/1/1988(H1N2))
HLA-B*18:01 [12] = assay: as above
HLA-A*02:03 = assay: as above; conditions: source organism: Cryptosporidium parvum Iowa II
HLA-A*68:02 = assay: as above; conditions: source organism: Cryptosporidium parvum Iowa II
HLA-A*02:12 = assay: as above; conditions: source organism: Cryptosporidium parvum Iowa II
HLA-A*69:01 [13] = assay: as above; conditions: source organism: Cryptosporidium parvum Iowa II
HLA-A*02:16 [14] = assay: as above; conditions: source organism: Cryptosporidium parvum Iowa II
HLA-A*02:11 = assay: IEDB peptide-MHC binding, purified MHC/direct/fluorescence; filed as Kd, often an IC50 or EC50 that approximates it; ≥ and ≤ were set here for values at or beyond the usual limits of such assays; conditions: source organism: Influenza A virus H3N2
HLA-B*46:01 [15] = assay: as above
HLA-A*31:01 = assay: as above; conditions: source organism: Influenza A virus (A/swine/Cotes d'Armor/800/00(H1N2))
HLA-A*02:16 [16] = assay: as above; conditions: source organism: Influenza A virus H3N2
HLA-B*08:02 = assay: as above; conditions: source organism: Cryptosporidium parvum Iowa II
[17] = source organism: Influenza A virus (A/Aichi/2/1994(H3N2))
[18] = source organism: Rickettsia felis URRWXCal2
[19] = source organism: Giardia lamblia ATCC 50803
[20] = source organism: Influenza A virus (A/Harbin/1/1988(H1N2))
[21] = source organism: Cryptosporidium parvum Iowa II
[22] = source organism: Influenza A virus (A/swine/Cotes d'Armor/800/00(H1N2))
[23] = source organism: Influenza A virus (A/Puerto Rico/8/34/Mount Sinai(H1N1))
[24] = source organism: Cryptosporidium parvum

QWLIEPCKL was tested, and the Kd (HLA-A*24:02; source organism: Orthohantavirus hantanense) was 155 nM, the Kd (HLA-A*24:03) was 205 nM and the Kd (HLA-A*23:01) was 180 nM.
Work on FQNVNRITY yielded a Kd (HLA-B*35:01; [17]) of 39.4 nM and a Kd (HLA-B*15:01 [1]; [17]) of 0.0751 µM.
With QYLFSLTYV the Kd (HLA-B*27:03; [18]) was ≥ 20 µM, the Kd (HLA-B*51:01; [18]) was ≥ 20 µM and the Kd (HLA-B*15:01 [1]; [18]) was ≥ 20 µM. The Kd (HLA-A*02:01 [2]; [18]) was 1190 nM, the Kd (HLA-A*26:01; [18]) was ≥ 20 µM and the Kd (HLA-B*57:01; [18]) was ≥ 20 µM. For the same sequence, the Kd (HLA-A*29:02; [18]) was 8 µM, the Kd (HLA-B*46:01 [3]; [18]) was ≥ 20 µM and the Kd (HLA-B*39:01; [18]) was ≥ 20 µM. The Kd (HLA-A*03:01 [4]; [18]) was ≥ 20 µM, the Kd (HLA-B*15:17) was ≥ 20 µM and the Kd (HLA-A*02:19; [18]) was ≥ 20 µM.
Work on RYMRVYNLW yielded a Kd (HLA-A*24:02; [19]) of 2 nM.
With IFKNLTKPL the Kd (HLA-A*01:01; [19]) was ≥ 20 µM, the Kd (HLA-B*07:02 [5]; [19]) was ≥ 20 µM and the Kd (HLA-B*08:01; [19]) was 0.774 µM. For the same sequence, the Kd (HLA-B*40:01; [19]) was ≥ 20 µM, the Kd (HLA-A*24:02; [19]) was ≥ 20000 nM and the Kd (HLA-B*15:01 [6]; [19]) was 757 nM. The Kd (HLA-B*44:02; [19]) was ≥ 20 µM, the Kd (HLA-A*02:01 [7]; [19]) was ≥ 20 µM and the Kd (HLA-B*15:09; [19]) was ≥ 20 µM. For the same sequence, the Kd (HLA-A*11:01; [19]) was ≥ 20 µM, the Kd (HLA-B*27:05; [19]) was ≥ 20 µM and the Kd (HLA-B*18:01 [8]; [19]) was ≥ 20 µM. For the same sequence, the Kd (HLA-A*03:01 [9]; [19]) was ≥ 20 µM, the Kd (HLA-A*69:01 [10]; [19]) was ≥ 20 µM and the Kd (HLA-B*58:01; [19]) was ≥ 20 µM.
For LPFQNVHPV, the Kd (HLA-C*05:01) was ≥ 20 µM, the Kd (HLA-B*07:02 [11]) was 161 nM and the Kd (HLA-B*35:01; [20]) was 0.4 nM. The Kd (HLA-B*51:01; [20]) was 1.49 µM.
For VVPSYIPLV, the Kd (HLA-B*27:03; source organism: Homo sapiens) was ≥ 20 µM, the Kd (HLA-B*15:01 [1]; source organism: Homo sapiens) was ≥ 20 µM and the Kd (HLA-A*02:01 [2]; source organism: Homo sapiens) was 0.7 nM. The Kd (HLA-B*57:01; source organism: Homo sapiens) was ≥ 20 µM, the Kd (HLA-A*29:02; source organism: Homo sapiens) was ≥ 20 µM and the Kd (HLA-B*18:01 [12]; source organism: Homo sapiens) was ≥ 20 µM. The Kd (HLA-B*46:01 [3]; source organism: Homo sapiens) was ≥ 20 µM, the Kd (HLA-B*39:01; source organism: Homo sapiens) was ≥ 20 µM and the Kd (HLA-A*03:01 [4]; source organism: Homo sapiens) was ≥ 20 µM.
With KSFSAGMFH the Kd (HLA-B*27:03; [21]) was ≥ 20 µM, the Kd (HLA-A*02:03) was ≥ 20 µM and the Kd (HLA-B*51:01; [21]) was ≥ 20 µM. For the same sequence, the Kd (HLA-A*68:02) was ≥ 20 µM, the Kd (HLA-A*02:12) was ≥ 20 µM and the Kd (HLA-A*02:01 [2]; [21]) was ≥ 20000 nM. For the same sequence, the Kd (HLA-A*26:01; [21]) was ≥ 20 µM, the Kd (HLA-B*57:01; [21]) was 0.574 µM and the Kd (HLA-A*29:02; [21]) was ≥ 20 µM. The Kd (HLA-B*18:01 [12]; [21]) was ≥ 20 µM, the Kd (HLA-B*46:01 [3]; [21]) was ≥ 20 µM and the Kd (HLA-B*39:01; [21]) was ≥ 20 µM. For the same sequence, the Kd (HLA-A*69:01 [13]) was ≥ 20 µM, the Kd (HLA-A*02:19; [21]) was ≥ 20 µM and the Kd (HLA-A*02:16 [14]) was ≥ 20 µM.
In the case of GMDPRMCSL, the Kd (HLA-A*01:01; [22]) is reported as ≥ 20 µM, the Kd (HLA-B*07:02 [5]; [23]) is reported as 1.66 µM and the Kd (HLA-B*08:01; [23]) is reported as 6.22 µM. For the same sequence, the Kd (HLA-A*02:11) was 11 nM, the Kd (HLA-B*40:01; [22]) was ≥ 20 µM and the Kd (HLA-A*24:02; [22]) was ≥ 20000 nM. For the same sequence, the Kd (HLA-B*15:01 [6]; [22]) was ≥ 20000 nM, the Kd (HLA-B*44:02; [22]) was ≥ 20 µM and the Kd (HLA-A*02:01 [7]; [23]) was 0.392 µM. For the same sequence, the Kd (HLA-A*11:01; [22]) was ≥ 20 µM, the Kd (HLA-B*27:05; [22]) was ≥ 20 µM and the Kd (HLA-B*18:01 [8]; [22]) was ≥ 20 µM. For the same sequence, the Kd (HLA-B*46:01 [15]; [22]) was ≥ 20 µM, the Kd (HLA-A*03:01 [9]; [22]) was ≥ 20 µM and the Kd (HLA-A*69:01 [10]; [22]) was ≥ 20 µM. For the same sequence, the Kd (HLA-B*58:01; [22]) was ≥ 20 µM, the Kd (HLA-A*31:01) was ≥ 20 µM and the Kd (HLA-A*02:16 [16]) was 19 nM.
In the case of NTSTCFQEY, the Kd (HLA-A*01:01; [24]) is reported as 0.0305 µM, the Kd (HLA-B*07:02 [5]; [24]) is reported as ≥ 20 µM and the Kd (HLA-B*40:01; [24]) is reported as ≥ 20 µM. The Kd (HLA-A*24:02; [24]) was ≥ 20000 nM, the Kd (HLA-B*15:01 [6]; [24]) was 592 nM and the Kd (HLA-B*44:02; [24]) was ≥ 20 µM. The Kd (HLA-A*02:01 [7]; [24]) was ≥ 20 µM, the Kd (HLA-B*15:09; [21]) was ≥ 20 µM and the Kd (HLA-B*27:05; [24]) was ≥ 20 µM. The Kd (HLA-B*46:01 [15]; [24]) was ≥ 20 µM, the Kd (HLA-A*03:01 [9]; [24]) was ≥ 20 µM and the Kd (HLA-A*69:01 [10]; [24]) was ≥ 20 µM. The Kd (HLA-B*58:01; [24]) was ≥ 20 µM and the Kd (HLA-B*08:02) was ≥ 20 µM.
